Results taken from the supplement of paper PMC3353916.
± gives the standard deviation of the averaged measurements.

System: Sindbis virus TE/5'2J-GFP
Experiment: percent infected (GFP+ in RFP+ ISG-expressing cells); higher = more infection (less antiviral activity)
Experimental: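 Confirmatory testing of 87 ISGs. Triplicate wells of BHK/HA-Zeo (control) or BHK/NZAP-Zeo (ZAP) cells were transduced with lentiviruses co-expressing a human ISG plus TagRFP, then infected 48 h later with SINV TE/5'2J-GFP (moi 5). The % GFP+ cells among RFP+ cells was measured by flow cytometry at 8 h post infection. Fluc lentivirus served as control. Three independent experiments.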

[1] = experiment: confirmatory screen 1, BHK/HA-Zeo (control)
[2] = experiment: confirmatory screen 1, BHK/NZAP-Zeo (ZAP)
[3] = experiment: confirmatory screen 2, BHK/HA-Zeo (control)
[4] = experiment: confirmatory screen 2, BHK/NZAP-Zeo (ZAP)
[5] = experiment: confirmatory screen 3, BHK/HA-Zeo (control)
[6] = experiment: confirmatory screen 3, BHK/NZAP-Zeo (ZAP)
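Also: Interferon-defective BHK-21 derivatives, ZAP line overexpressing the rat ZAP N-terminal zinc finger domain fused to Zeocin resistance, GFP scored within live singlet TagRFP+ cells.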

Row | Substance | percent infected [1] | percent infected [2] | percent infected [3] | percent infected [4] | percent infected [5] | percent infected [6]
1 | MSNGYSTDENFRYLISCFRARVKMYIQVEPVLDYLTFLPAEVKEQIQRTVATSGNMQAVELLLSTLEKGVWHLGWTREFVEALRRTGSPLAARYMNPELTDLPSPSFENAHDEYLQLLNLLQPTLVDKLLVRDVLDKCMEEELLTIEDRNRIAAAENNGNESGVRELLKRIVQKENWFSAFLNVLRQTGNNELVQELTGSDCSESNAEIENLSQVDGPQVEEQLLSTTVQPNLEKEVWGMENNSSESSFADSSVVSESDTSLAEGSVSCLDESLGHNSNMGSDSGTMGSDSDEENVAARASPEPELQLRPYQMEVAQPALEGKNIIICLPTGSGKTRVAVYIAKDHLDKKKKASEPGKVIVLVNKVLLVEQLFRKEFQPFLKKWYRVIGLSGDTQLKISFPEVVKSCDIIISTAQILENSLLNLENGEDAGVQLSDFSLIIIDECHHTNKEAVYNNIMRHYLMQKLKNNRLKKENKPVIPLPQILGLTASPGVGGATKQAKAEEHILKLCANLDAFTIKTVKENLDQLKNQIQEPCKKFAIADATREDPFKEKLLEIMTRIQTYCQMSPMSDFGTQPYEQWAIQMEKKAAKEGNRKERVCAEHLRKYNEALQINDTIRMIDAYTHLETFYNEEKDKKFAVIEDDSDEGGDDEYCDGDEDEDDLKKPLKLDETDRFLMTLFFENNKMLKRLAENPEYENEKLTKLRNTIMEQYTRTEESARGIIFTKTRQSAYALSQWITENEKFAEVGVKAHHLIGAGHSSEFKPMTQNEQKEVISKFRTGKINLLIATTVAEEGLDIKECNIVIRYGLVTNEIAMVQARGRARADESTYVLVAHSGSGVIEHETVNDFREKMMYKAIHCVQNMKPEEYAHKILELQMQSIMEKKMKTKRNIAKHYKNNPSLITFLCKNCSVLACSGEDIHVIEKMHHVNMTPEFKELYIVRENKALQKKCADYQINGEIICKCGQAWGTMMVHKGLDLPCLKIRNFVVVFKNNSTKKQYKKWVELPITFPNLDYSECCLFSDED [IFIH1] | 70.9 ± 2.3% | 14.9 ± 0.81% | 95.18 ± 0.27% | 92.703 ± 0.051% | 85 ± 1.1% | 81 ± 2.6%
2 | MSSAIERKSLDPSEEPVDEVLQIPPSLLTCGGCQQNIGDRYFLKAIDQYWHEDCLSCDLCGCRLGEVGRRLYYKLGRKLCRRDYLRLFGQDGLCASCDKRIRAYEMTMRVKDKVYHLECFKCAACQKHFCVGDRYLLINSDIVCEQDIYEWTKINGMI [LMO2] | 95.7 ± 1.2% | 86.1 ± 1.6% | 95.94 ± 0.44% | 94.18 ± 0.17% | 92.69 ± 0.33% | 92.61 ± 0.82%
3 | MSSENCFVAENSSLHPESGQENDATSPHFSTRHEGSFQVPVLCAVMNVVFITILIIALIALSVGQYNCPGQYTFSMPSDSHVSSCSEDWVGYQRKCYFISTVKRSWTSAQNACSEHGATLAVIDSEKDMNFLKRYAGREEHWVGLKKEPGHPWKWSNGKEFNNWFNVTGSDKCVFLKNTEVSSMECEKNLYWICNKPYK [CD69] | 95.94 ± 0.47% | 68.2 ± 4.8% | 94.01 ± 0.54% | 94.27 ± 0.39% | 91.7 ± 1.1% | 93.02 ± 0.27%
4 | MSSILPFTPPIVKRLLGWKKGEQNGQEEKWCEKAVKSLVKKLKKTGQLDELEKAITTQNVNTKCITIPRSLDGRLQVSHRKGLPHVIYCRLWRWPDLHSHHELRAMELCEFAFNMKKDEVCVNPYHYQRVETPVLPPVLVPRHTEIPAEFPPLDDYSHSIPENTNFPAGIEPQSNIPETPPPGYLSEDGETSDHQMNHSMDAGSPNLSPNPMSPAHNNLDLQPVTYCEPAFWCSISYYELNQRVGETFHASQPSMTVDGFTDPSNSERFCLGLLSNVNRNAAVELTRRHIGRGVRLYYIGGEVFAECLSDSAIFVQSPNCNQRYGWHPATVCKIPPGCNLKIFNNQEFAALLAQSVNQGFEAVYQLTRMCTIRMSFVKGWGAEYRRQTVTSTPCWIELHLNGPLQWLDKVLTQMGSPSIRCSSVS [SMAD3] | 77.4 ± 2.3% | 40.7 ± 1.2% | 93.92 ± 0.8% | 94.56 ± 0.45% | 80.2 ± 1.3% | 88.2 ± 1.7%
5 | MSSWSRQRPKSPGGIQPHVSRTLFLLLLLAASAWGVTLSPKDCQVFRSDHGSSISCQPPAEIPGYLPADTVHLAVEFFNLTHLPANLLQGASKLQELHLSSNGLESLSPEFLRPVPQLRVLDLTRNALTGLPPGLFQASATLDTLVLKENQLEVLEVSWLHGLKALGHLDLSGNRLRKLPPGLLANFTLLRTLDLGENQLETLPPDLLRGPLQLERLHLEGNKLQVLGKDLLLPQPDLRYLFLNGNKLARVAAGAFQGLRQLDMLDLSNNSLASVPEGLWASLGQPNWDMRDGFDISGNPWICDQNLSDLYRWLQAQKDKMFSQNDTRCAGPEAVKGQTLLAVAKSQ [LRG1] | 95.1 ± 1% | 68.2 ± 4.8% | 95.09 ± 0.35% | 94.92 ± 0.53% | 93.09 ± 0.65% | 94.47 ± 0.18%
6 | MTLNNVTMRQGTVGMQPQQQRWSIPADGRHLMVQKEPHQYSHRNRHSATPEDHCRRSWSSDSTDSVISSESGNTYYRVVLIGEQGVGKSTLANIFAGVHDSMDSDCEVLGEDTYERTLMVDGESATIILLDMWENKGENEWLHDHCMQVGDAYLIVYSITDRASFEKASELRIQLRRARQTEDIPIILVGNKSDLVRCREVSVSEGRACAVVFDCKFIETSAAVQHNVKELFEGIVRQVRLRRDSKEKNERRLAYQKRKESMPRKARRFWGKIVAKNNKNMAFKLKSKSCHDLSVL [GEM] | 91.5 ± 3.5% | 65 ± 4% | 94.19 ± 0.65% | 94.64 ± 0.36% | 94.39 ± 0.59% | 93.55 ± 0.12%
7 | MTLRCLEPSGNGGEGTRSQWGTAGSAEEPSPQAARLAKALRELGQTGWYWGSMTVNEAKEKLKEAPEGTFLIRDSSHSDYLLTISVKTSAGPTNLRIEYQDGKFRLDSIICVKSKLKQFDSVVHLIDYYVQMCKDKRTGPEAPRNGTVHLYLTKPLYTSAPSLQHLCRLTINKCTGAIWGLPLPTRLKDYLEEYKFQV [SOCS2] | 95.84 ± 0.81% | 76.8 ± 4.2% | 95.47 ± 0.42% | 94.44 ± 0.35% | 92.29 ± 0.39% | 92.23 ± 0.73%
8 | MTTEQRRSLQAFQDYIRKTLDPTYILSYMAPWFREEEVQYIQAEKNNKGPMEAATLFLKFLLELQEEGWFRGFLDALDHAGYSGLYEAIESWDFKKIEKLEEYRLLLKRLQPEFKTRIIPTDIISDLSECLINQECEEILQICSTKGMMAGAEKLVECLLRSDKENWPKTLKLALEKERNKFSELWIVEKGIKDVETEDLEDKMETSDIQIFYQEDPECQNLSENSCPPSEVSDTNLYSPFKPRNYQLELALPAMKGKNTIICAPTGCGKTFVSLLICEHHLKKFPQGQKGKVVFFANQIPVYEQQKSVFSKYFERHGYRVTGISGATAENVPVEQIVENNDIIILTPQILVNNLKKGTIPSLSIFTLMIFDECHNTSKQHPYNMIMFNYLDQKLGGSSGPLPQVIGLTASVGVGDAKNTDEALDYICKLCASLDASVIATVKHNLEELEQVVYKPQKFFRKVESRISDKFKYIIAQLMRDTESLAKRICKDLENLSQIQNREFGTQKYEQWIVTVQKACMVFQMPDKDEESRICKALFLYTSHLRKYNDALIISEHARMKDALDYLKDFFSNVRAAGFDEIEQDLTQRFEEKLQELESVSRDPSNENPKLEDLCFILQEEYHLNPETITILFVKTRALVDALKNWIEGNPKLSFLKPGILTGRGKTNQNTGMTLPAQKCILDAFKASGDHNILIATSVADEGIDIAQCNLVILYEYVGNVIKMIQTRGRGRARGSKCFLLTSNAGVIEKEQINMYKEKMMNDSILRLQTWDEAVFREKILHIQTHEKFIRDSQEKPKPVPDKENKKLLCRKCKALACYTADVRVIEECHYTVLGDAFKECFVSRPHPKPKQFSSFEKRAKIFCARQNCSHDWGIHVKYKTFEIPVIKIESFVVEDIATGVQTLYSKWKDFHFEKIPFDPAEMSK [DDX58] | 38 ± 4.1% | 4.81 ± 4.5% | 96.53 ± 0.19% | 89.2 ± 2.2% | 75.6 ± 6% | 23.2 ± 3.1%
9 | PCTK2 | 97.15 ± 0.48% | 70.7 ± 3.2% | 96.52 ± 0.12% | 94.42 ± 0.39% | 83.84 ± 0.21% | 86.8 ± 1.1%
10 | PDK1 | 94.39 ± 0.65% | 65.7 ± 2.9% | 95.24 ± 0.62% | 95.39 ± 0.19% | 93.83 ± 0.42% | 93.94 ± 0.33%
11 | PRIC285 | 94.6 ± 2.5% | 53.7 ± 6.2% | 96.59 ± 0.24% | 95.01 ± 0.88% | 83.7 ± 1.5% | 87.13 ± 0.73%
12 | TIMP1 | 94.88 ± 0.13% | 66.4 ± 2.3% | 94.66 ± 0.28% | 93.37 ± 0.42% | 90.3 ± 1.8% | 92.63 ± 0.18%
13 | UBE2L6 | 95.97 ± 0.92% | 78.8 ± 2.3% | 96.37 ± 0.3% | 95.27 ± 0.14% | 94.34 ± 0.69% | 93.02 ± 0.28%
